Reference: article PMC10178127, “Immunomodulatory Effects of the Pea Defensin Psd1 in the Caco-2/Immune Cells Co-Culture upon Candida albicans Infection” (International Journal of Molecular Sciences, 2023)

Tests used:
[1] = tested on: Caco-2 polarized monolayer; assay type: in vitro ADME, human
Procedure: For growing cells, mimicking epithelial barriers in vitro, Caco-2 cells were seeded onto 24-well polycarbonate Millicell cell culture inserts (0.4 μm, 0.6 cm^2 surface area) (Millipore, Burlington, MA, USA), precoated with 0.2% bovine gelatin (Sigma-Aldrich), at a density of 2.5 × 10^5 cells/cm^2. The cells were grown for 21 days in a complete DMEM/F12 (1:1) medium with re-feeding every 2–3 days with a fresh complete medium. The integrity of the Caco-2 cell monolayer was checked by measuring the transepithelial electrical resistance (TEER) using a Millicell-ERS Voltohmmeter (Millipore). Only cell monolayers with TEER > 400 Ωcm^2 (after subtracting TEER in blank inserts without Caco-2 cells) were used in transport across epithelial monolayer and cytokine production experiments.
The recombinant Psd1 was labeled with fluorescein isothiocyanate isomer I (FITC) (Sigma-Aldrich). For this, 0.5 mg of Psd1 was reconstituted in 20 µL of DMSO, then added to 100 µL of the buffer for coupling (0.1 M sodium carbonate, 0.1 M sodium bicarbonate, pH 10.8) and 3.7 mg of FITC in 100 µL of DMSO. The coupling reaction was conducted for 2 h at room temperature in the dark. In order to purify FITC-Psd1, the reaction mixture was loaded onto the PD10 gel-filtration column (GE Healthcare, Chicago, IL, USA) previously equilibrated with transport buffer (Hank’s balanced salt solution, containing 1 mM MgCl2, 1 mM CaCl2, and 10 mM D(+)glucose, pH 7.4).
Transport of FITC-Psd1 across the Caco-2 epithelial barrier in vitro was performed in the transport buffer. Bidirectional “apical-to-basolateral” (A→B) and “basolateral-to-apical” (B→A) transport of FITC-Psd1 in the transport buffer across epithelial barrier was investigated. The “apical-to-basolateral” assay was initiated by adding 0.4 mL of 2 µM FITC-Psd1 to the apical (luminal) side of the monolayer and 0.7 mL of the transport buffer (pH 7.4) to the basolateral side of the monolayer. The “basolateral-to-apical” assay was performed in a similar manner, except that 0.4 mL of the transport buffer (pH 7.4) was added to the apical side and 0.7 mL of 2 µM FITC-Psd1 to the basolateral (serosal) side. All solutions were pre-warmed to 37 °C before taking into the transport experiment. Transport in vitro across Caco-2 barriers was conducted for 90 min in 4 independent inserts for each studied transport variant.
An apparent permeability coefficient (Papp) was calculated for each insert according to the following equation:Papp = (V/(A × Ci)) × ΔC/Δt,(1) where V is the volume of the acceptor chamber, A is the area of the membrane insert, Ci is the initial concentration of Psd1, and ΔC/Δt is the solute flux across the barrier. Uptake ratio:UR = Papp(A→B)/Papp(B→A),(2) and efflux ratio:ER = Papp(B→A)/Papp(A→B),(3) for Psd1 were calculated from averaged apparent permeability coefficients measured in 4 independent inserts. Monolayer integrity was checked by measuring TEER before and after the end of the experiment.

[2] = tested on: Beas-2B human bronchial epithelial cells; settings: cited from earlier work
Description: It was shown previously that pea Psd1 is not toxic for Beas-2B human bronchial epithelial cells. Here we investigated the cytotoxic action of the pea Psd1 on human immune cells by using a human peripheral blood mononuclear cells (PBMCs) fraction.

[3] = tested on: C. albicans v47a3; test: Antifungal activity, microdilution method; assay type: cell-based, Candida albicans
Procedure: Antifungal activity of recombinant Psd1 against C. albicans v47a3 was tested by the microdilution method using 96-well microplates mainly as described for this defensin in [15]. Yeast cells in half-modified YPD broth at a final concentration of 10^4 cells/mL were used. Final Psd1 concentrations in the wells were 100, 50, 25, 12.5, 6.25, 3.125, and 1.56 μM. Plates were incubated at 30 °C for 24 h. Yeast growth was estimated using an inverted microscope as well as by measuring the optical density at 540 nm. The percentage of growth inhibition was defined as growth inhibition(%) = ((Acontrol − Asample)/Acontrol) × 100%. All of the experiments were performed twice in triplicate.

Substance: Psd1: pea defensin from Pisum sativum (UNIPROT P81929), recombinant peptide overexpressed in Escherichia coli (KTCEHLADTYRGVCFTNASCDDHCKNKAHLISGTCHNWKCFCTQNC; UniProt P81929 1-46, looked up)
- efflux ratio (ER) ([1]; Caco-2): 2.29
- uptake ratio (UR) ([1]; Caco-2): 0.44
- Apparent permeability A→B coefficients (Papp), range of four inserts ([1]; Caco-2, pH 7.4): 2.63–3.71 × 10^−6 cm/s
- Papp A→B ([1]; Caco-2, pH 7.4): 3.04 ± 0.24 × 10^−6 cm/s
- Papp B→A ([1]; Caco-2, pH 7.4): 6.96 ± 0.22 × 10^−6 cm/s
- toxicity for Beas-2B cells [2]: not toxic
- IC50 ([3]; C. albicans v47a3, 10^4 cells/mL, half-modified YPD broth, 30 °C, 24 h, OD 540 nm, twice in triplicate, read-out: concentration of 50% growth inhibition of yeast cells): 25 µM
- effect on the morphology of the fungus ([3]; C. albicans v47a3, inverted microscope): did not affect the morphology of the fungus
